T1: rat ICAM-1 on LPS-induced rat brain endothelial cells (SV-RBEC) (rat, UniProt Q00238 28-545)
T1 construct: whole, on cells; Endogenous protein on fixed cells
T1 sequence (looked up): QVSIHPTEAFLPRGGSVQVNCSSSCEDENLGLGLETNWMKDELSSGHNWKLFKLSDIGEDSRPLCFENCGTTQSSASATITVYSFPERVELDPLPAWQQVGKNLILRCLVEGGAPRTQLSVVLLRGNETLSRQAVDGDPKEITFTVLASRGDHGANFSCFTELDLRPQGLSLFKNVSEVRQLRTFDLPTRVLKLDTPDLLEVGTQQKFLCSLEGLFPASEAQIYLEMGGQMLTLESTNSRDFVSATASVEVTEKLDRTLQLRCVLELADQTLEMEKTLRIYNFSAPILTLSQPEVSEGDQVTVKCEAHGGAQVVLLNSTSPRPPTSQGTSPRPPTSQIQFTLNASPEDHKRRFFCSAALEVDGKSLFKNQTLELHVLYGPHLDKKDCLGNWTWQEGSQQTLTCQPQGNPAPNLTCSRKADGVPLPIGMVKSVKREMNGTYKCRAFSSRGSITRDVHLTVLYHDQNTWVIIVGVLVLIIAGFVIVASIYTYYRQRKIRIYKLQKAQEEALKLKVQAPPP


Key:
[1] = molecular target: T1, rat ICAM-1 on LPS-induced rat brain …; experiment: immunofluorescence with Cy5.5-labelled sdAb on fixed SV-RBEC cells with or without LPS
Description: Rat brain endothelial cells (SV-RBEC) were cultured on coverslips for 3 days in DMEM and 10% FBS. ICAM-1 expression was induced by adding 5 μg (1 mg/ml) of lipopolysaccharide (LPS; Sigma) overnight. Cells were then washed 3× with cold PBS, fixed with 3.7% formaldehyde for 20 min, washed again 3× in PBS at RT, and then blocked with 5% of normal goat serum/PBS for 1 h at RT. 25 μg anti-ICAM-1 IgG or 50 μg anti-ICAM-1 single domain antibodies (34-1, 11-4, 5-5) labelled with Cy5.5 (red) were incubated for 1 h at RT then washed 3× in PBS. The washed cells were incubated in 1:500 WGA-FITC/PBS for 1 min on ice, for membrane staining (green) then washed again 3× with PBS. Coverslips were then mounted in DAKO mounting medium containing 2 μg/ml of Hoechst for nuclear staining (blue).

[2] = molecular target: T2, mouse ICAM-1 in vivo (vasculature and atherosclerotic plaques of ApoE KO mice) (mouse, UniProt P13597 28-537); experiment: in vivo near-infrared optical imaging of ApoE KO and control mice after injection of Cy5.5-labelled sdAb
T2 construct: whole, on cells; Endogenous protein in the living animal; also called ICAM-1 receptor
T2 sequence (P13597 28-537): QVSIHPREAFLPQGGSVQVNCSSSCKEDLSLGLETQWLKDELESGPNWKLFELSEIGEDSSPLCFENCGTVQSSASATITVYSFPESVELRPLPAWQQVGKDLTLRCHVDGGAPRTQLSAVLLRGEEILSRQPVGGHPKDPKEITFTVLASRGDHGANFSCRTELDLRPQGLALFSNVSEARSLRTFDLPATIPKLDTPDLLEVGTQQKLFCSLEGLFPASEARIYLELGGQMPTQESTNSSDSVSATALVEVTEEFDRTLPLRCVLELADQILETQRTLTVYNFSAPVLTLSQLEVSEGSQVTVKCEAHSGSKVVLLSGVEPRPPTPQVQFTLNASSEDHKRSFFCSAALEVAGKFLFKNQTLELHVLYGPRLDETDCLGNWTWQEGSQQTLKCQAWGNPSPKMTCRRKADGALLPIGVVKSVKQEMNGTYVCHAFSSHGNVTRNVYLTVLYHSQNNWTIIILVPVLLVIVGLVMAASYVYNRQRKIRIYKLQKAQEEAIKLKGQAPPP
Description: Anti-ICAM-1 antibodies were labelled with Cy5.5 succimidyl ester using methods recommended by the manufacturer (GE Healthcare). […] The presence of plaques in the aorta of atherosclerotic mice (Example 6) was visualized monthly via tail vein injection of 50 μg of anti-ICAM-1 sdAb using non-invasive in vivo optical imaging. In vivo imaging studies were performed using a small-animal time-domain eXplore Optix MX2 pre-clinical imager (Advanced Research Technologies, Montreal, QC) at 4, 24, 48, and 72 h after injection. For imaging, mice were first anesthetized with isofluorane, and then positioned on an animal stage in a chamber that allows for maintenance of gaseous anesthesia. A pre-injection scan was routinely performed to determine baseline fluorescence level. At the end of the study, animals were euthanized and perfused, organs were removed and imaged. […] The fluorescence emission at 700 nm was collected by a highly sensitive time-correlated single photon counting system and detected through a fast photomultiplier tube. The data were recorded as temporal point-spread functions (TPSF) and the images were reconstructed as fluorescence concentration maps using ART Optix Optiview analysis software 2.0 (Advanced Research Technologies, Montreal, QC).

recombinant human ICAM-1 = molecular target: T3, recombinant human ICAM-1 (human, UniProt P05362 28-480); experiment: SPR (Biacore 3000), ICAM-1 captured on SA chip, monomeric VHH injected, 25 C
T3 construct: Bought recombinant protein; In SPR it was captured on an SA sensor chip; also called intercellular adhesion molecule 1; CD54
T3 sequence (P05362 28-480 limits assumed): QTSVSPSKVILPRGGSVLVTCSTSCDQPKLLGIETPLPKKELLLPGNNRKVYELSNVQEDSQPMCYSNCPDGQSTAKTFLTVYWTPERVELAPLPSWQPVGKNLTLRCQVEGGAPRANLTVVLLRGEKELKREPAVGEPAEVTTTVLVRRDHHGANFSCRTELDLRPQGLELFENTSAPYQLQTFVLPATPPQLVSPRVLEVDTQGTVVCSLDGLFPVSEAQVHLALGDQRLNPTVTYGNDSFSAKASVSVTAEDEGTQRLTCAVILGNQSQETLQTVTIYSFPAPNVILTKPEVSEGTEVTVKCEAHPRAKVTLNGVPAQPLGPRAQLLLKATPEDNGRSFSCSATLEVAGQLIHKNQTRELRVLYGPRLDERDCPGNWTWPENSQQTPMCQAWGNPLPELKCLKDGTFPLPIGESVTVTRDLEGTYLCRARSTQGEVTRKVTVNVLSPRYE
Description: Three clones (5-5, 11-4, and 34-1) obtained in Example 4 were individually passed through size exclusion columns, Superdex 75 (GE Healthcare) in 10 mM HEPES, pH 7.4, containing 150 mM NaCl, 3 mM EDTA; monomeric sdAb fractions were collected and protein concentrations were determined by measuring A₂₈₀. SPR analyses were performed with Biacore 3000 instrument (GE Healthcare). All measurements were carried out at 25° C. in 10 mM HEPES, pH 7.4, containing 150 mM NaCl, 3 mM EDTA and 0.005% surfactant P20 (GE Healthcare). Approximately 700-900 RUs of the recombinant ICAM-1 was captured on SA sensor chip (GE Healthcare) at a flow rate of 5 μl/min. Various concentration of the monomeric VHH were injected over the ICAM-1 surface, using a SA surface as a reference, at a flow rate of 40 μl/min. Surfaces were generated by washing with running buffer. Data were analysed with BIAevaluation 4.1 software.

Binder	binding result [1]	binding result [2]	Kd (recombinant human ICAM-1)	koff (recombinant human ICAM-1)	kon (recombinant human ICAM-1)
anti-ICAM-1 sdAb clone 11-4 labelled with Cy5.5 (VHH, labelled with Cy5.5 succimidyl ester, dye/antibody ratio of two; labelled residues not stated, also called anti-ICAM-1 sdAb 11-4-Cy5.5; anti-ICAM-1 11-4 sdAb-Cy5.5) VHH: QVQLVESGGGLVQPGGSLRLSCAASGSISSLYVMGWYRQAPGKQRELVADITSSGSIYYVDSLKGRFTISRDNARSTVYLQMNSLEPEDTAVYYCMAHVRQDSGSEYLTYWGQGTQVTVSS	binds	binds	–	–	–
anti-ICAM sdAb clone 11-4 (VHH, Soluble His6-tagged VHH expressed in E. coli from pSJF2, purified by IMAC, monomeric by SEC; also called llama sdAb clone 11-4; anti-ICAM-1 sdAb 11-4) VHH: QVQLVESGGGLVQPGGSLRLSCAASGSISSLYVMGWYRQAPGKQRELVADITSSGSIYYVDSLKGRFTISRDNARSTVYLQMNSLEPEDTAVYYCMAHVRQDSGSEYLTYWGQGTQVTVSS	–	–	0.9 nM	0.002 s⁻¹	2e+06 M⁻¹ s⁻¹
anti-ICAM-1 sdAb clone 34-1 labelled with Cy5.5 (VHH, labelled with Cy5.5 succimidyl ester, dye/antibody ratio of two; labelled residues not stated, Cy5.5 conjugate of m3) VHH: QVKLEESGGGLVQPGGSLRLSCAASGSIFSINDMGWYRQAPGKQRELVARITRDGSAAYEDSVKGRFTISRDNAPNTVFLQMNGLKPEDTAVYYCNAEIITTQTLGRMLGEYWGQGTQVTVSS	binds	–	–	–	–
anti-ICAM sdAb clone 34-1 (VHH, Soluble His6-tagged VHH expressed in E. coli from pSJF2, purified by IMAC, monomeric by SEC; also called llama sdAb clone 34-1) VHH: QVKLEESGGGLVQPGGSLRLSCAASGSIFSINDMGWYRQAPGKQRELVARITRDGSAAYEDSVKGRFTISRDNAPNTVFLQMNGLKPEDTAVYYCNAEIITTQTLGRMLGEYWGQGTQVTVSS	–	–	10 nM	0.002 s⁻¹	100000 M⁻¹ s⁻¹
anti-ICAM sdAb clone 5-5 (VHH, Soluble His6-tagged VHH expressed in E. coli from pSJF2, purified by IMAC, monomeric by SEC; also called llama sdAb clone 5-5) VHH: QVKLEESGGGLVQAGDSLRLSCAASGRTVNAFRMGWYRQAPGKQRERVAVITAGGTTSYIDSVKGRFTISRDNAKNTVYLQMNSLKPEDTAVYYCAAIDYDSRGQGTQVTVSS	–	–	60 nM	0.004 s⁻¹	70000 M⁻¹ s⁻¹
anti-ICAM-1 sdAb clone 5-5 labelled with Cy5.5 (VHH, labelled with Cy5.5 succimidyl ester, dye/antibody ratio of two; labelled residues not stated, Cy5.5 conjugate of m2) VHH: QVKLEESGGGLVQAGDSLRLSCAASGRTVNAFRMGWYRQAPGKQRERVAVITAGGTTSYIDSVKGRFTISRDNAKNTVYLQMNSLKPEDTAVYYCAAIDYDSRGQGTQVTVSS	binds	–	–	–	–
